The target of the assay is Recombinant human His-tagged CEACAM5 extracellular domain (human) (UniProt P06731). The assay can be described thus: BLI. In general terms: BLI is a label-free optical method that tracks binding on a fibre tip over time.
Sequence of UniProt P06731 (P06731 35-702): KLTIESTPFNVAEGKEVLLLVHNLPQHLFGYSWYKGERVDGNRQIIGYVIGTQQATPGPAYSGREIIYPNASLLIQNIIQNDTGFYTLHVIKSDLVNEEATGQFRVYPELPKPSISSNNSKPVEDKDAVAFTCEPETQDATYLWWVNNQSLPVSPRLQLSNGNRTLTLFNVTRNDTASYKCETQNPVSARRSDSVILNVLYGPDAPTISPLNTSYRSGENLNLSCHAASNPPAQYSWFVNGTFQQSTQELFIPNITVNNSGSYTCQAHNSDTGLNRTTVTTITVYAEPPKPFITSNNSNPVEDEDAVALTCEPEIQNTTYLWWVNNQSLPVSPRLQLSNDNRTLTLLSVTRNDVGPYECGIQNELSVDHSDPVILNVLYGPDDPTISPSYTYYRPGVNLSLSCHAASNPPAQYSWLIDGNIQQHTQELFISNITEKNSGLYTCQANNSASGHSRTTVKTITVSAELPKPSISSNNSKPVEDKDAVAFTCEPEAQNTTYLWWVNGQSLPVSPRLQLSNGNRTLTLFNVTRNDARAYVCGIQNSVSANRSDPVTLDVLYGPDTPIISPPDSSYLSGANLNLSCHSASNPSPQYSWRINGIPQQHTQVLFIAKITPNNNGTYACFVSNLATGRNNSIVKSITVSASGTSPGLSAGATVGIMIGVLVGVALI

On to “common light chain IgG variant 4G07 (from UniProt P01624)”, for which the Kd (in general, a measure of binding affinity in units of concentration) is 0.6 nM.
Regarding “common light chain IgG variant 4F02 (from UniProt P01624)”, the Kd is 2.5 nM.

Source of the values: publication PMC5759264.
